Tested on: Arabidopsis mutant line AS11
Experiment: Complementation of Arabidopsis AS11 DGAT mutant by seed-specific expression of TmDGAT1
Format: in vivo, Arabidopsis thaliana
Details: homozygous T3 seed lines, napin promoter
Protocol: FIG. 9. Complementation of A. thaliana AS11 mutant seed oil and fatty acid profile by expression of TmDGAT1. Transformation of Arabidopsis mutant line AS11 with the TmDGAT1 cDNA under the control of a napin promoter leads to a restoration of (A) fatty acid composition profile of the transgenic lines and (B) the WT level oil content. Total oil content (as percentage of mature seed dry weight) and fatty acid composition (% wt/wt) were determined on the seed oil extracted from T3 seeds of Arabidopsis pSE:WT and pSE:AS11 (empty plasmid) controls and from napin:TmDGAT1 AS11 transgenics lines.
The final binary vector (napin/DGAT/nos) was verified and electroporated into Agrobacterium tumefaciens cells strain GV3101 containing helper plasmid pMP90 (Koncz and Schell, 1986). Plasmid integrity was verified by DNA sequencing following its re-isolation from A. tumefaciens and transformation into E. coli. […]
The coding region of the TmDGAT1 (SEQ. ID. NO: 2) was cloned into a pSE vector behind the seed-specific napin promoter. […] At the same time several independent plasmid only control AS11 transgenic (pSE vector without DGAT1 insert) lines, as well as napin:TmDGAT1 in WT and pSE in WT transgenic lines were propagated and analyzed. […]

B1: TmDGAT1: Tropaeolum majus acyl-CoA-dependent diacylglycerol acyltransferase 1, 518 amino acids (SEQ ID NO: 3), encoded by ORF SEQ ID NO: 2 (protein, listed as Tropaeolum majus)
chain: MAVAESSQNTTTMSGHGDSDLNNFRRRKPSSSVIEPSSSGFTSTNGVPATGHVAENRDQDRVGAMENATGSVNLIGNGGGVVIGNEEKQVGETDIRFTYRPSFPAHRRVRESPLSSDAIFKQSHAGLFNLCIVVLIAVNSRLIIENLMKYGWLIDTGFWFSSRSLGDWSIFMCCLTLPIFPLAAFIVEKLVQRNHISELVAVLLHVIVSTAAVLYPVIVILTCDSVYMSGVVLMLFGCIMWLKLVSYAHTSSDIRTLAKSGYKGDAHPNSTIVSCSYDVSLKSLAYFMVAPTLCYQPSYPRSSCIRKGWVVRQFVKLIVFIGLMGFIIEQYINPIVRNSKHPLKGDFLYAIERVLKLSVPNLYVWLCMFYSFFHLWLNILAELLRFGDREFYKDWWNAKTVAEYWKMWNMPVHRWMVRHLYFPCLRNGIPKEGAIIIAFLVSGAFHELCIAVPCHVFKLWAFIGIMFQVPLVLITNYLQEKFSNSMVGNMIFWFIFCILGQPMCVLLYYHDLINLKEK
B1 was tested. Which “TAG levels of AS11 seed after expression” value did it give?
Its value is “at least as high as that found in wild type Arabidopsis”.

What about the “fatty acid composition of AS11 seed oil after expression” value of the same molecule?
Its value is “restoring the proportions of 18:1, 20:1 and 18:3 to give a WT profile”.
